Laboratory results taken from PMC7943601.

Biological target: PrgJ (S. enterica sv. Typhimurium (endogenous in SB905)) (UniProt P41785)
Test: cryo-EM structure

Sequence of PrgJ (P41785 whole entry): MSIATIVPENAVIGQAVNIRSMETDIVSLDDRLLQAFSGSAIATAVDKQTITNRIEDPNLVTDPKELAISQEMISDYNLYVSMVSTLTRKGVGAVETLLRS

“PrgJ (from UniProt P41785 1-101) (natural protein)” was tested, and the stoichiometry N was 6.
